Reference: patent US20240148898A1

B1: huHF-TPP1 (AB loop) (designed binder, not shown: small tags and cut ends)
chain: MTTASTSQVRQNYHQDSEAAINRQINLELYASYVYLSMSYYFDRDDSGQYASYHCWCWRDPGRSGGSKVALKNFAKYFLHQSHEEREHAEKLMKLQNQRGGRIFLQDIKKPDCDDWESGLNAMECALHLEKNVNQSLLELHKLATDKNDPHLCDFIETHYLNEQVKAIKELGDHVTNLRKMGAPESGLAEYLFDKHTLGDSDNES
B2: huHF-TPP1 (CD loop) (designed binder, not shown: small tags and cut ends)
chain: MTTASTSQVRQNYHQDSEAAINRQINLELYASYVYLSMSYYFDRDDVALKNFAKYFLHQSHEEREHAEKLMKLQNQRGGRIFLQDIKKPDCDDWESGLNAMECALHLEKNVNQSLLELHKLATDKNDSGQYASYHCWCWRDPGRSGGSKPHLCDFIETHYLNEQVKAIKELGDHVTNLRKMGAPESGLAEYLFDKHTLGDSDNES
B3: huHF-αPD-L1 HCDR3 (CD loop), Examples 1-6 (designed binder)
chain: MTTASTSQVRQNYHQDSEAAINRQINLELYASYVYLSMSYYFDRDDVALKNFAKYFLHQSHEEREHAEKLMKLQNQRGGRIFLQDIKKPDCDDWESGLNAMECALHLEKNVNQSLLELHKLATDKNDSGHGYSYGAFDYPHLCDFIETHYLNEQVKAIKELGDHVTNLRKMGAPESGLAEYLFDKHTLGDSDNES

What was measured:
[1] = molecular target: recombinant PD-L1 protein (PD-1 ligand), species not stated; experiment: MST
[2] = molecular target: recombinant PD-L1 protein (PD-1 ligand), species not stated; experiment: ELISA

Sequence of recombinant PD-L1 protein (PD-1 ligand), species not stated (Q9NZQ7 whole entry): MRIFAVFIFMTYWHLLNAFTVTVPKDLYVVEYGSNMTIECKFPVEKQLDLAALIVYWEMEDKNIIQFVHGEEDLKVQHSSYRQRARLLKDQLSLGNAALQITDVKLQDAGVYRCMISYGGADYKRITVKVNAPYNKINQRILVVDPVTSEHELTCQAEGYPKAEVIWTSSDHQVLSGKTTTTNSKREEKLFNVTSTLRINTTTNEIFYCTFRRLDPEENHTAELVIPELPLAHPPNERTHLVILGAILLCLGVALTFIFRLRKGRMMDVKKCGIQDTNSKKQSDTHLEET

| Binder | Kd [1] | Kd [2] |
| --- | --- | --- |
| B1 | 72.1 nM |  |
| B2 | 115 nM |  |
| B3 |  | 71.2 nM |
